1 molecule from PMC6160062, “Designing antibodies against LRRK2-targeted tau epitopes” (PLoS ONE, 2018) can be followed below.

The assay addresses T1, tau in human tauopathy brain tissue (neurofibrillary tangles) (Homo sapiens, UniProt P10636).
T1 construct: microtubule associated protein tau, human, endogenous in brain; also called NFT tau; tau pathology in AD, FTD and PSP cases; source: endogenous, formalin fixed paraffin embedded human brain tissue (hippocampal region; AD, FTD, PSP cases)
The experiment in a line: immunostaining of cells or tissue; paraffin sections of mouse brain (rTg4510 and nontransgenic; 4.5, 6, 8.5, 10 months) or of human hippocampal tissue; citrate antigen retrieval; MHT2 overnight; ABC/DAB detection.

T1 sequence (P10636 whole entry): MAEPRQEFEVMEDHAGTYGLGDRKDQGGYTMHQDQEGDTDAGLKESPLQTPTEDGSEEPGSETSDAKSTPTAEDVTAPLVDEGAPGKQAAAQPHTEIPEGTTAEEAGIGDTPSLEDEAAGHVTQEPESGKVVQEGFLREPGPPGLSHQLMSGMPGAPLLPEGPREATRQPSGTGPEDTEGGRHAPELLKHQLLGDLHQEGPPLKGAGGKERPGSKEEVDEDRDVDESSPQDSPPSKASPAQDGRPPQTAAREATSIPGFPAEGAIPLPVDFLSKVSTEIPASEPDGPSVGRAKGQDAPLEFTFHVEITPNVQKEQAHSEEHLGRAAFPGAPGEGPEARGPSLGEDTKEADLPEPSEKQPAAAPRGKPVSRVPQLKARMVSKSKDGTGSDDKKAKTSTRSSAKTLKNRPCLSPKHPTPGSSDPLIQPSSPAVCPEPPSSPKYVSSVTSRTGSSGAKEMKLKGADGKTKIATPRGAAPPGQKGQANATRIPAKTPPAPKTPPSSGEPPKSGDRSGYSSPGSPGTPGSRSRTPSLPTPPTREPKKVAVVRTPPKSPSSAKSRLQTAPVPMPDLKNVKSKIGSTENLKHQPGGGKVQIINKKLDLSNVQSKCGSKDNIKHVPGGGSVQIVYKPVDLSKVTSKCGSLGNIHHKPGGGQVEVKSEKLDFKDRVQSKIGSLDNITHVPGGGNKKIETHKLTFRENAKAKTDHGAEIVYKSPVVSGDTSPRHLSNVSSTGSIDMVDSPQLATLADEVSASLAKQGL

B1: MHT2 monoclonal antibody (antibody, V domains shown)
VH: EVQLQQSGAELVRPGALVKLSCKASGFNIKDYYMHWVKQRPEQGLEWIGWIDPENGNTIYDPKFQGKASITADTSSNTAYLQLSSLTSEDTAVYYCSSYYDYDYWG
VL: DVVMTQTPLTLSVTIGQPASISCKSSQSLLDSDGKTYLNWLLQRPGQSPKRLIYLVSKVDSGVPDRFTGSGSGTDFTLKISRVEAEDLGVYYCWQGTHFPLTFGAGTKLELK
notes: Isotype IgG1; For the BLI experiment only, the antibody was biotinylated with EZ-Link NHS-PEG4 and held on streptavidin sensors; also called antibody MHT2
Turning to B1, the binding result is recorded as “binds”.
